The DeepSol protein solubility set

test: soluble on expression in E. coli; label from the status in PepcDB or PDB records

Sequence	soluble on expression in E. coli
MGNQMSVPQRVEGQENEPEAETYQDNASALNGVPVVVSTHTVQHLEEVDLGISVKTDNVATSSPETTEISAVADANGKNLGKEAKPEAPAAKSRFFLMLSRPVPGRTGDQAADSSLGSVKLDVSSNKAPANKDPSESWTLPVAAGPGQDTDKTPGHAPAQDKALSAARDPTLLPPETGGAGGEAPSKPKDSSFFDKFFKLDKGQEKVPGDSQQEAKRAEHQDKVDEVPGLSGQSDDVPAGKDIVDGKEKEGQELGTADCSVPGDPEGLETAKDDSQAAAIAENNNSIMSFFKTLVSPNKAETKKDPEDTGAEKSPTTSADLKSDKANFTSQETQGAGKNSKGCNPSGHTQSVTTPEPAKEGTKEKSGPTSLPLGKLFWKKVVCESPVEIIKSKEVESALQTVDLNEGDAAPEPTEAKLKREESKPRTSLMAFLRQMSVKGDGGITHSEEINGKDSSCQTSDSTEKTITPPEPEPTGAPQKGKEGSSKDKKSAAEMNKQKSNKQEAKEPAQCTEQATVDTNSLQNGDKLQKRPEKRQQSLGGFFKGLGPKRMLDAQVQTDPVSIGPVGKSK	soluble
MGNRLMTSGAQGTNAAVIRGAMRADPNLLTVILPQSLDRQPRESREQLEKVIHLVEHAENDHLSLAEASTLCNQAIVTRCQQLICFAFHDSHTLLETCRYAEDQHHLVTLFYFDLEHHHHHH	soluble
MGQQLLSHQSVSSQWLANQSATSTLPLLDLSLLSGSDTERQAFLTALRHAARDVGFFYLTGHGIDTSLLRQIQILSRQFFALSDEEKLSIAMIRSPHFRGYNRAASEFTRGQPDWREQFDIGAERTPLPQIAGAPSWTRLQGPNQWPTALPELKPVLLQWQEEMTRMSLRLLRAFALALDLDEQAFDALYGDKPNEHIKLIRYPGREATQSGQGVGAHKDSGFLSFLLQDTQRGLQVEVEEGQWIDAVPREGTFVVNIGELLELASNGYLRATVHRVETPPAGIDRLSIAFFLGARLDAVVPLYPLSAALAAEARGPASDPHNPLFRDVGLNYLKGRLRSHPDVAERYYSDALCS	not soluble
MGQVLPLVTRQGDRIAIVSGLRTPFARQATAFHGIPAVDLGKMVVGELLARSEIPAEVIEQLVFGQVVQMPEAPNIAREIVLGTGMNVHTDAYSVSRACATSFQAVANVAESLMAGTIRAGIAGGADSSSVLPIGVSKKLARVLVDVNKARTMSQRLKLFSRLRLRDLMPVPPAVAEYSTGLRMGDTAEQMAKTYGITREQQDALAHRSHQRAAQAWSDGKLKEEVMTAFIPPYKQPLVEDNNIRGNSSLADYAKLRPAFDRKHGTVTAANSTPLTDGAAAVILMTESRAKELGLVPLGYLRSYAFTAIDVWQDMLLGPAWSTPLALERAGLTMSDLTLIDMHEAFAAQTLANIQLLGSERFAREALGRAHATGEVDDSKFNVLGGSIAYGHPFAATGARMITQTLHELRRRGGGFGLVTACAAGGLGAAMVLEAE	soluble
MGREVAESCVDTMLMEMVAMYSGRFYANKPELAARRIEAIGYQVGHQLSERYTMERPRFSDHLEAIKFICKDFWSEVFKKQIDNLKTNHRGTFVLQDNKFRWLSRVSIDPSSENETQDPSTPGESKAAQAVSMYLYFPCGIIRGVLSNLGIPCAVSADISSLPTCSFVIRVKA	not soluble
MGRFLLVDKKAPNYENLIDKEMNEIYERVKKIDPNQNEFLQAFHEILYSLKPLFMEDPKYLPIIEMLSEPERLVQFRVCWIDDNGIQRKNRGFRVQFNSTLGIYKGGLRFHPSVNLSIVKFLGFEQIFKNSLTGLSMGGAKGGSDFDPKGKSDNEIMKFCQSFMNELYRHIGPRTDVPAGDIGVGGREIGYLFGQYKKIANSFNGTLTGKNEKWGGSILRTEATGYGLVYFVLEVLKSLNIQMDKQTAIVSGSGNVALYCVQKLLQLNVKVLTMSDSNGYIYEPNGFTNDDLNFIIELKEVRKGRIEEYLKHSSTAKYFPNEKPWNVKCTLAFPCATQNEIDLDDAKLLHKNGCILVGEGANMPSTIEAINYLKENKIILCPSKAANAGGVAISGLEMSQNFQFAKWTKETVDEKLKEIMKNIFISSSESALKYANNKYDLQVGANISGFLKVADSYIQQGL	soluble
MGRFRRVLTTAVLTTLLVGGTAGWASASSASVPGGPLPGTAAWLADDFLGRELPDPGTATPAEVAAFFAGLSDVQRHRLAEDHPAVVGNLDGVPVHLRYEANAPAGDRVLAYDPRGRGTIARVAGDLENAAHVSVIVPGSDIDAETFDRTAQRAADLQAAAGDDTAVIAWAGYTTPSGIGPDLATGRLAEAGAERLARLTEGLDAAGLPDPSLFCHSYGSVVCGLAADDTDARDIVVMGSPGMRADDVGALGTDAHVWAAKSPDDWIDRVPNVEFLGLGHGADPTSPGFGATVLPADDVPAHDEYFTPGTSTLAAFAAIADGERPLEHHHHHH	not soluble
MGRGRAKAKQTKVARELKYSSPQTDFQRLQRELSGTGTDRLDGDGPSDDDSWNDEDDWRR	not soluble
MGRIRQTFIKRTGEELIEKFADKFTSDFEENKKAVEEVAMISTKPLRNRIAGYVTAKVKKMNALEHHHHHH	not soluble
MGRKEMLQNGVQQVFYEEEWYPPISEAVKNLTVEQACWQPEGAASNTIWENVNHLLIFKERLLSRLHEDDTFVAPQNNDETFIQGGPNDDAAWQQTVKRTLQVHDALQSSLTALQEAELDQLSPSLPVWQQYMNILLHDAYHTGQIIQLRKLQGSWPTHRSYL	not soluble
MGRKNSPSANKELNELIAQYETARAENRQLYLDGDQLADIADQYAAERKFNEAQEVITYGLHLHPDSTDLLVEQAYLYLDTGKIPLAKKVVESITDEYDTDVKMLKAELMLNEGQLENARNVLDTIEDADELETIINIVYLYMDMGYPEAAKEWLDKGAPRHGKKEDFMAVMADYLTGTNQLEAASTFYNQLIDIDPYNASYWVGLAKCRFAAEDCEKAIEACDFALAADDKCGEAYAYRGHSYFYLNNSDAAIEDYKKAIKYKALPPEMGYMFLGLTYSNKEAWKEADDYYQRVIDRFIEEGLGNSPLLIDTYTNKAVAASRLGKYEEAHQLCKKAIAIQPDDPAIYLAEGKLYIQENQKKKAVKSFDKALTMEPSAEMWYMVASAYSDAEYLYQAKLCFQEAYRIDPNYADIAEKLSVLSLMHNEIDDFFKYNNESEHPISEDIILELLSRPNQTEEGEQMLREVWERMKKEKGNN	not soluble
MGRLFVVNLEGKIYSCKHCKTHLATYEDIISKSFHCKHGKAYLFNKVANVSIGETEERLMMTGKHTVADIFCVSCGSIVGWKYETAHEKNQKYKEGKSVLERFKISGPDGSNYWVSSHGRHIGGSDADDA	soluble
MGRSPCFFKSFKGKLHKDRSPDPSTLASPHPSTEARRPVEAGSAEWTWGWMKRLPPASLSPGIAMSCYSGDSMLQKYKVKNAYRLHWQGREEPGASTFASLVFQ	soluble
MGRVVLWLLLLALLPAYAQETYDWIVVLGAAQYGGRPSPALERRLQAALHLFREGRGRRIAVAGGKAPEDLYSEGEVGCRYLAARGVPEEALFCETRSRSTYENLLFLKPHLEGRLLLVTDAPHLPRALFLARLLGLEAEGYPVPGNYPLGYWAKEALYRLWLYLGLRPQGVFSSRFNASRAAALEHHHHHH	not soluble
MGSDKIHHHHHHACDDNKDEFLDEFSTILSFRNCDEIEVEVYNTGENGEYQLIVNKSGAQLGTVTRASIDVMDKALLEIYNEQNGKDYQLYPEDCYVFNGDKQIEFGPNDTYQTRSVTLITDKILESNQQEGNFVIPFILQNSADSINAERKYVFLKPAVIVPNVAFEKTGYNLNIISDAMDANEIELNLPAVFSVDNKWNFSCTLEPDESLLTEYNEKNGVDYTMLSEEAYTLSNEGKILFTAGSKSASLTVTVKRNKLSYGNYVLPLKMTQCSSPYFEINPNKQSCLFGISYVPDESKLHPVTLSRGMTAIHPNREVEGKIDYMFDGNPDTYYHSDYLEEPGLPHWIQLNLDEPHTALMFEYQVRHNNNNGAPQRISVLGSMDGITFSKIMTIMEGFPTATKGTYKSPVLVGKEFKHIRLVVESTPAGNSFALAELKLHVN	not soluble
MGSDKIHHHHHHADGRYIEVTGTSEIEIVPDRIHYIIEIREYFEEEFDGRSKPEEYRTKISLDRIEQGLREVLHDAGISPNAVRTQEIGDYWRKQGQDFLVAKTFDITLLDFKQIDEILKRMDTKGIHTMRIGELENKDMLSYHQKGKIAALKAAQRKASYLVEALGKKLGPVIRIVEDEAGSSLPFSQSNVLSSSVVSFDSFRTIKKKYSMLVRFEIAD	not soluble
